According to the supplement of paper PMC9112550, “Optimization of the antimicrobial peptide Bac7 by deep mutational scanning” (BMC Biology, 2022):

tested on: Escherichia coli TOP10; assay: shrunken log2 fold change of peptide-encoding DNA abundance (4.5 h post-induction vs induction); higher = less antimicrobial activity (less host growth inhibition); conditions: time post-induction: 4.5 h; library: site-saturation at positions 5, 18, 19, 20
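Further: peptides expressed intracellularly from a pBAD plasmid library in pooled LB shake-flask culture, induced with 0.3% L-arabinose, DNA abundance read by NGS, three biological replicates, DESeq2 with apeglm shrinkage.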

Point of comparison: RRIRWRPPRLPRPRPRPICKPRP, “shrunken log2 fold change” value -0.0506. Against it:
- RRIRGRPPRLPRPRPRPRESPRP — higher, 1.26
- RRIRKRPPRLPRPRPRPVNMPRP — within 0.2 log units, 0.113
- RRIRTRPPRLPRPRPRPFIQPRP — lower, -0.312
- RRIRYRPPRLPRPRPRPSLQPRP — within 0.2 log units, -0.126
- RRIRGRPPRLPRPRPRPPPEPRP — higher, 2.01
- RRIRTRPPRLPRPRPRPGNHPRP — lower, -0.731
- RRIRGRPPRLPRPRPRPNHLPRP — within 0.2 log units, -0.226
- RRIRDRPPRLPRPRPRPRITPRP — within 0.2 log units, -0.138
- RRIRNRPPRLPRPRPRPTRGPRP — higher, 0.725
- RRIRLRPPRLPRPRPRPETYPRP — within 0.2 log units, -0.215
- RRIRPRPPRLPRPRPRPSGPPRP — within 0.2 log units, -0.174
- RRIRERPPRLPRPRPRPTMSPRP — within 0.2 log units, -0.217
- RRIRHRPPRLPRPRPRPHVIPRP — lower, -0.302
- RRIRQRPPRLPRPRPRPMCKPRP — within 0.2 log units, -0.0652
- RRIRTRPPRLPRPRPRPQQVPRP — within 0.2 log units, -0.231
- RRIRQRPPRLPRPRPRPRTVPRP — higher, 0.349
- RRIRGRPPRLPRPRPRPMCNPRP — higher, 0.31
- RRIRGRPPRLPRPRPRPWDFPRP — higher, 0.328
- RRIRNRPPRLPRPRPRPRCWPRP — within 0.2 log units, 0.108
- RRIRKRPPRLPRPRPRPNNAPRP — higher, 0.243
- RRIRFRPPRLPRPRPRPSMSPRP — lower, -0.394
- RRIRYRPPRLPRPRPRPCTHPRP — lower, -1.23
- RRIRQRPPRLPRPRPRPADHPRP — within 0.2 log units, -0.0888
- RRIRNRPPRLPRPRPRPQSTPRP — lower, -0.548
- RRIRCRPPRLPRPRPRPDIVPRP — within 0.2 log units, -0.0875
- RRIRCRPPRLPRPRPRPDLLPRP — lower, -0.393
- RRIRERPPRLPRPRPRPKCIPRP — lower, -0.464
- RRIRTRPPRLPRPRPRPERLPRP — within 0.2 log units, -0.0511
- RRIRCRPPRLPRPRPRPSWGPRP — higher, 0.258
- RRIRVRPPRLPRPRPRPRCIPRP — lower, -0.661
- RRIRERPPRLPRPRPRPVCMPRP — within 0.2 log units, -0.164
- RRIRKRPPRLPRPRPRPDCRPRP — within 0.2 log units, -0.00777
- RRIRGRPPRLPRPRPRPMAVPRP — higher, 0.773
- RRIRQRPPRLPRPRPRPQNFPRP — within 0.2 log units, -0.0918
- RRIRLRPPRLPRPRPRPLQRPRP — within 0.2 log units, 0.0926
- RRIRFRPPRLPRPRPRPPDQPRP — higher, 0.63
- RRIRNRPPRLPRPRPRPGQTPRP — within 0.2 log units, 0.00913
- RRIRDRPPRLPRPRPRPGYAPRP — within 0.2 log units, 0.137
- RRIRARPPRLPRPRPRPCANPRP — within 0.2 log units, 0.102
- RRIRRRPPRLPRPRPRPKEAPRP — within 0.2 log units, 0.0205
- RRIRLRPPRLPRPRPRPWHYPRP — within 0.2 log units, -0.164
- RRIRRRPPRLPRPRPRPYWRPRP — within 0.2 log units, 0.0363
- RRIRVRPPRLPRPRPRPPIWPRP — within 0.2 log units, -0.109
- RRIRSRPPRLPRPRPRPHYGPRP — within 0.2 log units, -0.00176
- RRIRDRPPRLPRPRPRPDKHPRP — within 0.2 log units, -0.0761
- RRIRDRPPRLPRPRPRPSFPPRP — lower, -0.362
- RRIRPRPPRLPRPRPRPVMNPRP — lower, -0.29
- RRIRCRPPRLPRPRPRPVETPRP — within 0.2 log units, 0.0672
- RRIRIRPPRLPRPRPRPQYAPRP — within 0.2 log units, 0.0303
- RRIRARPPRLPRPRPRPPDRPRP — higher, 0.853
- RRIRARPPRLPRPRPRPNMHPRP — within 0.2 log units, 0.0638
- RRIRVRPPRLPRPRPRPDLFPRP — within 0.2 log units, -0.045
- RRIRQRPPRLPRPRPRPRGDPRP — higher, 0.346
- RRIRLRPPRLPRPRPRPFPPPRP — within 0.2 log units, 0.00271
- RRIRRRPPRLPRPRPRPMMWPRP — higher, 0.487
- RRIRGRPPRLPRPRPRPEINPRP — higher, 0.797
- RRIRFRPPRLPRPRPRPRADPRP — higher, 0.223
- RRIRMRPPRLPRPRPRPRYYPRP — lower, -0.261
- RRIRQRPPRLPRPRPRPVITPRP — lower, -0.414
- RRIRIRPPRLPRPRPRPAYYPRP — lower, -0.401
- RRIRWRPPRLPRPRPRPNCAPRP — higher, 0.255
- RRIRWRPPRLPRPRPRPCLGPRP — within 0.2 log units, 0.0309
- RRIRYRPPRLPRPRPRPEMNPRP — within 0.2 log units, -0.0274
- RRIRYRPPRLPRPRPRPEYVPRP — within 0.2 log units, -0.0327
- RRIRTRPPRLPRPRPRPKICPRP — lower, -0.292
- RRIRERPPRLPRPRPRPLMRPRP — higher, 0.839
- RRIRFRPPRLPRPRPRPMMCPRP — within 0.2 log units, -0.139
- RRIRSRPPRLPRPRPRPCWPPRP — higher, 0.42
- RRIRPRPPRLPRPRPRPEWLPRP — higher, 0.404
- RRIRERPPRLPRPRPRPVLGPRP — within 0.2 log units, -0.101
- RRIRYRPPRLPRPRPRPQDKPRP — lower, -0.341
- RRIRKRPPRLPRPRPRPANEPRP — higher, 0.151
- RRIRMRPPRLPRPRPRPFAHPRP — within 0.2 log units, -0.00592
- RRIRSRPPRLPRPRPRPKSKPRP — within 0.2 log units, -0.0869
